Starred links: 1 amine or outer side, 2 acyl side, 3 side chain; linkers in the order of their positions; H or OH if unused. Positions of bridges follow the written chain, without caps; N, C: chain ends. Non-standard residues stand in square brackets, D forms with d. Groups on a side chain read outwards from the residue. Primed or numbered codes have the meaning given here. No end group written: not given here. *: point of attachment. PyrS2″ = (S)-3-amino-1-((pent-4-en-1-yloxy)carbonyl)pyrrolidine-3-carboxylic acid (stapling residue), C=CCCCOC(=O)N1CC[C@@](N[*:1])(C(=O)[*:2])C1; B5(4) = 2,2-bis(4-pentenyl)glycine = 2-amino-2-(pent-4-en-1-yl)hept-6-enoic acid (stitching residue), C=CCCCC(CCCC=C)(N[*:1])C(=O)[*:2]; B5(5) = 2,2-bis(4-pentenyl)glycine, 2-amino-2-(pent-4-en-1-yl)hept-6-enoic acid (stitching residue), C=CCCCC(CCCC=C)(N[*:1])C(=O)[*:2]; (CH2NMe2)4SEF = (S)-2-amino-3-(4-(3-(dimethylamino)prop-1-yn-1-yl)phenyl)propanoic acid, CN(C)CC#Cc1ccc(C[C@H](N[*:1])C(=O)[*:2])cc1; TfeGA = (S)-2-amino-3-((carboxymethyl)(2,2,2-trifluoroethyl)amino)propanoic acid, O=C([C@H](CN(CC(=O)[*:3])CC(F)(F)F)N[*:1])[*:2]; B5(31) = 2-amino-2-(pent-4-en-1-yl)hept-6-enoic acid (bis-pentenylglycine, stitching residue), C=CCCCC(CCCC=C)(N[*:1])C(=O)[*:2]; PyrS2 = (S)-3-amino-1-((pent-4-en-1-yloxy)carbonyl)pyrrolidine-3-carboxylic acid, C=CCCCOC(=O)N1CC[C@@](N[*:1])(C(=O)[*:2])C1; 5iPr3COOHF = (S)-3-(2-amino-2-carboxyethyl)-5-isopropylbenzoic acid, CC(C)c1cc(C[C@H](N[*:1])C(=O)[*:2])cc(C(=O)[*:3])c1; (3C)TriAzLys = (S)-2-amino-6-(4-propyl-1H-1,2,3-triazol-1-yl)hexanoic acid, CCCc1cn(CCCC[C@H](N[*:1])C(=O)[*:2])nn1; (bismethoxyethylamine)GlnR″ = N5,N5-bis(2-methoxyethyl)-L-glutamine, COCCN(CCOC)C(=O)CC[C@H](N[*:1])C(=O)[*:2]; Lithocholoyl = C[C@H](CCC(=O)*)[C@H]1CC[C@H]2[C@@H]3CC[C@@H]4C[C@H](O)CC[C@]4(C)[C@H]3CC[C@]12C; MorphAsn = (S)-2-amino-4-morpholino-4-oxobutanoic acid, O=C(C[C@H](N[*:1])C(=O)[*:2])N1CCOCC1; B5(3) = 2,2-bis(4-pentenyl)glycine (stitching residue), C=CCCCC(CCCC=C)(N[*:1])C(=O)[*:2]; Me3AdamantC = 3,5,7-trimethyladamantane-1-carbonyl, CC12CC3(C)CC(C)(C1)CC(C(=O)*)(C2)C3; CO2Hex = N-term cyclohexyl hydrogen carbonate, O=C(OC1CCCCC1)*; CO2Ph = N-term phenyl hydrogen carbonate, O=C(Oc1ccccc1)*; Nva(5-morpholino) = N[C@@H](CCCN1CCOCC1)C(=O)O; Phe(3-COOH) = N[C@@H](Cc1cccc(C(=O)O)c1)C(=O)O; 2F3MeF = Cc1cccc(C[C@H](N[*:1])C(=O)[*:2])c1F; Phe(2-CF3) = N[C@@H](Cc1ccccc1C(F)(F)F)C(=O)O; Phe(2-Cl) = N[C@@H](Cc1ccccc1Cl)C(=O)O; Bta = N[C@@H](Cc1csc2ccccc12)C(=O)O; Lys(iPr) = CC(C)NCCCC[C@H](N)C(=O)O; αAllylPro = C=CC[C@@]1(C(=O)O)CCCN1; Azidoacetyl = [N-]=[N+]=NCC(=O)*; tBuAla = CC(C)(C)C[C@H](N)C(=O)O; 3Thi = N[C@@H](Cc1ccsc1)C(=O)O; Cha = N[C@@H](CC1CCCCC1)C(=O)O; hSer = N[C@@H](CCO)C(=O)O; 34ClF = not defined here; PEG2′ = not defined here; Aib = CC(C)(N)C(=O)O; Moc = COC(=O)*
target: full-length beta-Catenin (Uniprot ID P35222) (Homo sapiens (Human)) (UniProt P35222); test: fluorescence polarization competition; full-length beta-catenin, competitor 5FAM-TCF4(10-53) probe

Row | Binder | IC50 | EC50
1 | Ac-[αAllylPro]D[tBuAla][B5(5)]NT[Aib]AFN[PyrS2″][3Thi][Bta]A-NH2 (staple 1-4, 4-11) [I-2411] | 140 nM | –
2 | Ac-[αAllylPro]E[tBuAla][B5(31)]NTAAFN[PyrS2″][3Thi][Bta]Q-NH2 (staple 1-4, 4-11; also: staple isomer, earlier eluting HPLC peak) [I-2331] | 10000 nM | –
3 | Ac-[αAllylPro]N[tBuAla][B5(31)]NTAAFN[PyrS2″][3Thi][Bta]Q-NH2 (staple 1-4, 4-11) [I-2333] | 10000 nM | –
4 | Ac-[αAllylPro]D[tBuAla][B5(5)]NT[Aib]AFN[PyrS2″][3Thi][Bta]F-NH2 (staple 1-4, 4-11) [I-2412] | 267 nM | –
5 | Ac-[αAllylPro]D[tBuAla][B5(5)]NT[Aib]AFN[PyrS2″][3Thi][Bta]R-NH2 (staple 1-4, 4-11) [I-2413] | 133 nM | –
6 | Ac-[αAllylPro]N[Cha][B5(5)]DQSAFL[PyrS2″]F[Bta]K-NH2 (staple 1-4, 4-11) [I-2422] | 3360 nM | –
7 | {2‑(3-(allyloxy)phenyl)acetyl}-PD[tBuAla][B5(5)]D[TfeGA]AAFL[PyrS2][3Thi][Bta]Q-NH2 (staple 4-11, N-4; also: staples hydrogenated, -CH=CH- reduced to -CH2-CH2-) [I-2405] | 568 nM | –
8 | CO2Ph-[αAllylPro]D[tBuAla][B5(31)]DDAAFQ[PyrS2″][3Thi][Bta]H-NH2 (staple 1-4, 4-11) [I-2326] | 185 nM | –
9 | Azidoacetyl-[αAllylPro]D[tBuAla][B5(5)]DDAAFN[PyrS2]F[Bta]H-NH2 (staple 1-4, 4-11) [I-1055] | – | 7 nM
10 | Ac-[αAllylPro]D[tBuAla][B5(5)]D[Phe(3-COOH)]AAFL[PyrS2″][Phe(2-CF3)][Bta]S[(3C)TriAzLys]-NH2 (staple 1-4, 4-11) [I-2432] | 60 nM | –
11 | Ac-[αAllylPro]D[tBuAla][B5(3)]N[Phe(3-COOH)]AAFN[PyrS2″][3Thi][Bta]Q-NH2 (staple 1-4, 4-11) [I-2335] | 7 nM | –
12 | Ac-[αAllylPro]N[Cha][B5(5)]DQ[hSer]AFL[PyrS2″]F[Bta]K-NH2 (staple 1-4, 4-11) [I-2419] | 203 nM | –
13 | Azidoacetyl-[αAllylPro]D[tBuAla][B5(5)]DDAAFN[PyrS2][3Thi][Bta][dT]-NH2 (staple 1-4, 4-11) [I-1058] | – | 14 nM
14 | Ac-[αAllylPro]D[tBuAla][B5(31)]NTAAFT[PyrS2″][3Thi][Bta]A-NH2 (staple 1-4, 4-11) [I-2334] | 656 nM | –
15 | Azidoacetyl-[αAllylPro]D[tBuAla][B5(5)][3Thi][TfeGA]AAFN[PyrS2]D[Bta]Q-NH2 (staple 1-4, 4-11; also: staple isomer unspecified: later eluting HPLC peak) [I-1057] | – | 6640 nM
16 | CO2Ph-[αAllylPro]D[tBuAla][B5(31)]D[Phe(3-COOH)]AAFL[PyrS2″][Phe(2-Cl)][Bta]A-NH2 (staple 1-4, 4-11) [I-2327] | 376 nM | –
17 | Ac-[αAllylPro]N[tBuAla][B5(5)]DQAAFH[PyrS2″]F[Bta]Q-NH2 (staple 1-4, 4-11) [I-2440] | 360 nM | –

Row | Binder | IC50 | EC50
18 | Ac-[αAllylPro]D[tBuAla][B5(5)]D[5iPr3COOHF]QAFL[PyrS2″][Phe(2-CF3)][Bta]A-NH2 (staple 1-4, 4-11) [I-2431] | 33 nM | –
19 | Azidoacetyl-[αAllylPro]D[tBuAla][B5(5)][3Thi][TfeGA]AAFN[PyrS2]D[Bta]Q-NH2 (staple 1-4, 4-11; also: staple isomer unspecified: earlier eluting HPLC peak) [I-1056] | – | 6490 nM
20 | Ac-[αAllylPro]D[tBuAla][B5(5)]NT[Aib]AFN[PyrS2″][3Thi][34ClF]Q-NH2 (staple 1-4, 4-11; reading uncertain; also: printed as Ac-PL3-Asp-Npg-B5-Asn-Thr-Aib-Ala-Phe-Asn-PyrS2-3Thi-34C1F-Gln-NH2) [I-2417] | 158 nM | –
21 | Ac-[αAllylPro]N[Cha][B5(5)]DQNAFL[PyrS2″]F[Bta]K-NH2 (staple 1-4, 4-11) [I-2420] | 2120 nM | –
22 | Azidoacetyl-[αAllylPro]D[tBuAla][B5(5)]DDAAFT[PyrS2][Phe(2-Cl)][Bta][dT]-NH2 (staple 1-4, 4-11) [I-1060] | – | 38 nM
23 | Ac-[αAllylPro]D[tBuAla][B5(5)]NT[Aib]AFL[PyrS2][3Thi][Bta]Q-NH2 (staple 1-4, 4-11) [I-2408] | 10000 nM | –
24 | Ac-[αAllylPro][hSer][tBuAla][B5(5)]DHAAFT[PyrS2″]F[Bta]Q-NH2 (staple 1-4, 4-11) [I-2438] | 1760 nM | –
25 | CO2Hex-[αAllylPro]D[tBuAla][B5(31)]D[Phe(3-COOH)]AAFL[PyrS2″][Phe(2-Cl)][Bta]A-NH2 (staple 1-4, 4-11) [I-2325] | 1350 nM | –
26 | Ac-[αAllylPro]D[Cha][B5(5)]DQ[Lys(iPr)]AFL[PyrS2″]F[Bta]K-NH2 (staple 1-4, 4-11) [I-2429] | 10 nM | –
27 | Ac-[αAllylPro]N[Cha][B5(5)]DQQAFL[PyrS2″]F[Bta]K-NH2 (staple 1-4, 4-11) [I-2421] | 145 nM | –
28 | Ac-[αAllylPro]E[tBuAla][B5(31)]NTAAFN[PyrS2″][3Thi][Bta]Q-NH2 (staple 1-4, 4-11) [I-2332] | 10000 nM | –
29 | Ac-[αAllylPro][hSer][tBuAla][B5(5)]DQAAFH[PyrS2″]F[Bta]Q-NH2 (staple 1-4, 4-11) [I-2439] | 2760 nM | –
30 | Ac-[αAllylPro]N[Cha][B5(5)]DQ[Lys(iPr)]AFL[PyrS2″]F[Bta][Nva(5-morpholino)]-NH2 (staple 1-4, 4-11) [I-2428] | 401 nM | –
31 | Ac-[αAllylPro]N[Cha][B5(5)]DQ[Lys(iPr)]AFL[PyrS2″]F[Bta][MorphAsn]-NH2 (staple 1-4, 4-11) [I-2426] | 46 nM | –
32 | Ac-[αAllylPro]D[tBuAla][B5(4)]D[Phe(3-COOH)][(bismethoxyethylamine)GlnR″]AFL[PyrS2″][2F3MeF][Bta]A-NH2 (staple 1-4, 4-11) [I-2322] | 7 nM | –
33 | Moc-[αAllylPro]D[tBuAla][B5(3)]D[Phe(3-COOH)]AAFL[PyrS2″][Phe(2-Cl)][Bta]A-NH2 (staple 1-4, 4-11) [I-2324] | 83 nM | –

target: full-length beta-Catenin (Uniprot ID P35222) (Homo sapiens (Human)) (UniProt P35222); test: fluorescence polarization competition; displacement of 5FAM-TCF4(10-53) from full-length beta-catenin
Target sequence in this assay (P35222 whole entry): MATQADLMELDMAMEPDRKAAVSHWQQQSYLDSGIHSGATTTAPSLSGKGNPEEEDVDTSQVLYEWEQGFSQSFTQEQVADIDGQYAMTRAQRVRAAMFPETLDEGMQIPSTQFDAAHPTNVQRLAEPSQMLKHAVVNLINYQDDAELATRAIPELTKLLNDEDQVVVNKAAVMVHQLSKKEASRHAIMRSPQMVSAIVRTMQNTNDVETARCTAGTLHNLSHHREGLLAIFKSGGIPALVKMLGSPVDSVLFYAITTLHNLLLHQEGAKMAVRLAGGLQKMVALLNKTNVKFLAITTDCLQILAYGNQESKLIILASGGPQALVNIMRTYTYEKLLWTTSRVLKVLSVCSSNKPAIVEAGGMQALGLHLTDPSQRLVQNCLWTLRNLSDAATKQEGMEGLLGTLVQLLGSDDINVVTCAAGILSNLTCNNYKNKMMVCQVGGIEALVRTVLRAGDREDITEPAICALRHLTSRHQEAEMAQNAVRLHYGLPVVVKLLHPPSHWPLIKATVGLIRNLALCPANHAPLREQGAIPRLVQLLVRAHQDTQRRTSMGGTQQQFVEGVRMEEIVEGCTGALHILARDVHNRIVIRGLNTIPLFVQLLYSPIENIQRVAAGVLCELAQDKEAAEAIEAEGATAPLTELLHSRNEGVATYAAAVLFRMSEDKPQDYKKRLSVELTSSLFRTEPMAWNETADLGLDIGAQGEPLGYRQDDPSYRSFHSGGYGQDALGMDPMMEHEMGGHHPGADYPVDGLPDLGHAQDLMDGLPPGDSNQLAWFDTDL

Row | Binder | IC50
34 | Ac-[αAllylPro]D[tBuAla][B5(5)]DDAAFQ[PyrS2][3Thi][Bta]H-NH2 (staple 1-4, 4-11) [I-1460] | 7 nM
35 | Ac-[αAllylPro]DK(Lithocholoyl)[B5(5)]DDAAFL[PyrS2][3Thi][Bta]Q-NH2 (staple 1-4, 4-11) [I-1469] | 95 nM
36 | Ac-[αAllylPro]DK([PEG2′-Lithocholoyl])[B5(4)]DDAAFL[PyrS2][3Thi][Bta]Q-NH2 (staple 1-4, 4-11) [I-1470] | 57 nM
37 | Ac-[αAllylPro]D[tBuAla][B5(5)]DDAAFQ[PyrS2][3Thi][Bta]H-NH2 (staple 1-4, 4-11) [I-1459] | 5 nM
38 | Ac-[αAllylPro]DK(Me3AdamantC)[B5(4)]DDAAFL[PyrS2][3Thi][Bta]Q-NH2 (staple 1-4, 4-11) [I-1471] | 34 nM
39 | Ac-[αAllylPro]D[tBuAla][B5(4)]DD[(CH2NMe2)4SEF]AFL[PyrS2]F[Bta]Q (staple 1-4, 4-11) [I-1467] | 12 nM

Reference: patent US20240116985A1, “STAPLED PEPTIDES AND METHODS THEREOF” (priority 2020, published 2024)
